According to patent US20250026815A1:
Where two headings read alike, the source gives them in different places.

Legend:
[1] = target: RSV-F protein of RSV A Long virus (as carried by the live virus in the neutralisation assay) (human respiratory syncytial virus, strain A Long) (UniProt P12568); test: cell-based or functional assay
[2] = target: RSV-F protein of RSV A2 virus (as carried by the live virus in the neutralisation assay) (human respiratory syncytial virus, strain A2) (UniProt P03420); test: cell-based or functional assay
Sequence of RSV-F protein of RSV A2 virus (as carried by the live virus in the neutralisation assay) (human respiratory syncytial virus, strain A2) (P03420 26-574): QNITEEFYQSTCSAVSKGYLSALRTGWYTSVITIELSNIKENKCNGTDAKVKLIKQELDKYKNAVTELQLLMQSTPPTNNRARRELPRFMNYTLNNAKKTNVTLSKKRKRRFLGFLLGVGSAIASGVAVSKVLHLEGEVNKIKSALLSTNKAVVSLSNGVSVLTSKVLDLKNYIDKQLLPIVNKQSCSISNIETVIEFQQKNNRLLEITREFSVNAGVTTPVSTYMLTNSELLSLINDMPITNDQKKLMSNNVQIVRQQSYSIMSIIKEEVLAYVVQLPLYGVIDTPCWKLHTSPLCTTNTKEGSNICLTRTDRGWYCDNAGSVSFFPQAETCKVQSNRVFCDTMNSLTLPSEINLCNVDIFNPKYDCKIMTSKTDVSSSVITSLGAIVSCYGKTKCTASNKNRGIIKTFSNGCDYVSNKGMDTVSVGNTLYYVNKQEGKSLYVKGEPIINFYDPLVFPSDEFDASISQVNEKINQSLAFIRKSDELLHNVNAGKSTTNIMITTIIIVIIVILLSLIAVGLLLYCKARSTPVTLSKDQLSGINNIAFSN

[3] = target: RSV-F protein of RSV B9320 virus (as carried by the live virus in the neutralisation assay) (human respiratory syncytial virus, strain B9320); test: cell-based or functional assay
[4] = target: recombinant RSV-F protein (RSV A2 strain fusion (F) protein with added His tag) (human respiratory syncytial virus, A2 strain) (UniProt P03420); test: SPR (Biacore), antibody captured, RSV-F as analyte; column head prints nM, Kd/Ka gives M
Sequence of recombinant RSV-F protein (RSV A2 strain fusion (F) protein with added His tag) (human respiratory syncytial virus, A2 strain) (P03420 26-109, chain 1 of 2): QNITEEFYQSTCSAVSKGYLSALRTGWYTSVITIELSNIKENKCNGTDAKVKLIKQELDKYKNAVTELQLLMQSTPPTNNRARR
Sequence of recombinant RSV-F protein (RSV A2 strain fusion (F) protein with added His tag) (human respiratory syncytial virus, A2 strain) (P03420 137-524, chain 2 of 2): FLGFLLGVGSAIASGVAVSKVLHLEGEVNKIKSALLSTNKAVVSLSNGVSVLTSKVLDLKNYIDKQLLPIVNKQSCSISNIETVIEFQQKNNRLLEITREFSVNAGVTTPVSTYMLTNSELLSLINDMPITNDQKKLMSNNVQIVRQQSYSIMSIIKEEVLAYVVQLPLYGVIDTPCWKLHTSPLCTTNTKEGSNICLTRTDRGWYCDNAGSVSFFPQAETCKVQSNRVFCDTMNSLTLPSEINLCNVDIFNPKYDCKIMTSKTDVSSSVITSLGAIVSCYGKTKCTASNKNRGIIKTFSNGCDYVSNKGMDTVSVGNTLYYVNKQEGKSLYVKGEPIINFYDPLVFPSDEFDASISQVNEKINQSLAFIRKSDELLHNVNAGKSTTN

[5] = target: recombinant RSV-F protein (RSV A2 strain fusion (F) protein with added His tag) (human respiratory syncytial virus, A2 strain) (UniProt P03420); test: SPR (Biacore), antibody captured, RSV-F as analyte
[6] = target: RSV-F protein of RSV A Long virus (as carried by the live virus in the neutralisation assay) (human respiratory syncytial virus, strain A Long) (UniProt P12568); test: cell-based or functional assay; remark: listed apart in the source
[7] = target: RSV-F protein of RSV A2 virus (as carried by the live virus in the neutralisation assay) (human respiratory syncytial virus, strain A2) (UniProt P03420); test: cell-based or functional assay; remark: listed apart in the source
[8] = target: RSV-F protein of RSV B9320 virus (as carried by the live virus in the neutralisation assay) (human respiratory syncytial virus, strain B9320); test: cell-based or functional assay; remark: listed apart in the source

In the case of Palivizumab (antibody), the Absolute IC50, neutralizing RSV A Long (HEp-2 cells, indirect ELISA) [1] is reported as 0.232 µg/mL, the Absolute IC50, neutralizing RSV A2 (HEp-2 cells, indirect ELISA) [2] is reported as 1.06 µg/mL and the Absolute IC50, neutralizing RSV B9320 (HEp-2 cells, indirect ELISA) [3] is reported as 1.07 µg/mL. The Kd [4] was 0.0628 nM, the kon [5] was 1.2e+06 M⁻¹ s⁻¹ and the Absolute IC50, neutralizing RSV A Long (HEp-2 cells, indirect ELISA) [6] was 1.59 µg/mL. It also gave an Absolute IC50, neutralizing RSV A2 (HEp-2 cells, indirect ELISA) [7] of 3.04 µg/mL and an Absolute IC50, neutralizing RSV B9320 (HEp-2 cells, indirect ELISA) [8] of 0.481 µg/mL.
